This data set can be described thus: yeast display, Sf9 membrane polyspecificity reagent, FACS + sequencing; frameworks hold sequencing errors. Put shortly:
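Galactose-induced (36–48 hours) yeast carrying a synthetic nanobody display library were exposed to 10% biotinylated, detergent-solubilized Sf9 membrane reagent at 4 °C for 1 hour. FACS followed streptavidin microbead enrichment, using low and high (top ~1%) gates for expression (anti-HA) and reagent binding (streptavidin). Colony PCR, MiSeq 2 × 250 sequencing and CDR-length filtering followed. Labels for polyreactivity reflect the gate of origin.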
For the sequence “QVQLVESGRGLVHAGGSLRLSCAASGFILGVNERGWYRQAPGKERELVAAISQGDGSKYYADSVKGRFTISRDNANNTVYLQMNSLKPEDTAVYYCNAELYRDLRGYDHWGQGTQVTVSS”, the “polyreactivity (PSR sort gate)” value was “low polyreactivity”.

As to “QVQLVESGGGLVQAGGSLRLSCAASGSIFDFNTMGWYIQAPGKERELVAAISQRTGRTYYADSVKGRFTISRDKAKNTVYLQMNSLKPEDTAVYYCAKVAVAGRGSGNYINHRFEYWGQGTQVTVSS”, the “polyreactivity (PSR sort gate)” value was “high polyreactivity”.

As for “QVQLVESGGGLVQAGGSLRLSCAASGSTFDYYAMGWYRQAPGKERELVAAITGTGGSTYYADSVKGRFTISRDNAKNTVYLQMNSLKPEDTAVYYCAADTYLGWSYYWGQGTQVTVSS”, the “polyreactivity (PSR sort gate)” value was “high polyreactivity”.

For the sequence “QVQLVESGGGLVQAGGSLRLSCAASGLTFQWYAMGWYRQAPGKERELVAAISSRGGSTYYADSVKGRFTISRDNAKNTVYLQMNSLKPVDTAVYYCAVYTIGYLAWYQKFDYWGQGTQVTVSS”, the “polyreactivity (PSR sort gate)” value is listed as “high polyreactivity”.

“QVQLVESGGGLVQAGGSLRLSCAASGSIFTIYAMGWYRQAPGKERELVATITGGGGSTYYADSVKGRFTISRDNAKNTVYLQMNSLKPEDTAVYDCAADSPGWTYTSRSYDYWGQGTQVTVSS”: the “polyreactivity (PSR sort gate)” value is reported as “low polyreactivity”.

On to “QVQLVESGGGLVQAGGSLRLSCAASGFTFFQNHRGWYRQAPGTERELVADISYRGRRPYYADSVKGRFTISRDNAKNTVYLQMNCLKPVDTAVYYCARRSSKPSSIQYYYCGQGTQVTVSS”, for which the “polyreactivity (PSR sort gate)” value is given as “high polyreactivity”.

As for “QVQLVESGGGSLRLSCAASALTFGGYTMGWYRQAPGKERELVAAISSSDSTNYADSVKGRFTISRDNAKNTVYLQMNSLKPEDTAVYYCAADSGQWSRYSSFGDEGDSWGQGTEVTVSS”, the “polyreactivity (PSR sort gate)” value is “low polyreactivity”.

For “QVQLVESGGGLVQAGGSLRLSCAASGFIFQYYAMGWYRQAPGKERELVAAITPSGTSTYYADSVKGRFTISRDNAKNTVYLQMNSLKPEDTAVYYCAVRYYFVDFHSTTGYPYSYDYWGQGTQVTVSS”, the “polyreactivity (PSR sort gate)” value is given as “low polyreactivity”.

Turning to “QVQLVESGGGLVQAGGSLRLSCAASGFIFARYAMGWYRQAPGKERELVAAISSGGRTYFADSVKGRFTISRDNAKNTVYLQMNSLKPEDTAVYYCAKRPTNGYGTFDYWGQGTQVTVSS”, the “polyreactivity (PSR sort gate)” value is “high polyreactivity”.

As for “QVQLVESWGGLVQAGGSLRLSCAASGFTFNANAMGWYRQAPGKERELVAAISLSGGRTYYADSVKGRFTISRDNEKNTVYLQMNSLKPVDTAVYYCAASPDGSFRRFSRVVSGDYWGQGTQVTVSS”, the “polyreactivity (PSR sort gate)” value was “high polyreactivity”.

“QVQLVESGGGLVQAGGSLRLSCAASGSTFVQYDMGWYRQAPGKERELVAGITRTGSTYADSVKGRFTISRDNAKNTVYLQMNSLKPEDTADYYCAVYVSGYAQTSRYDYWGQGTQVTVSS”: the “polyreactivity (PSR sort gate)” value is “low polyreactivity”.

As to “QVQLVESGGGLVQAGGSLRLSCAASGFTFYDYAMGWYRQAPGKEREFVAAITWSGSSTYYADSVKGRFTISRDNAKNTVYLQMNSLKPEVTAVYYCAVGPFRRRGHYPTYYRYGYWGQGTQVTVSS”, the “polyreactivity (PSR sort gate)” value is on record as “high polyreactivity”.

For “QVQLVESGGGLVQAGGSLRLSCAASGFIFQGNAMGWYRQAPGKEREFVAAISWSGGRTYYADSVKGRFTISRDNAKNTVYLQMNSLKPEDTAVYYCAVTPVRFASGGAWMDYWGQGTQVTVSS”, the “polyreactivity (PSR sort gate)” value is given as “high polyreactivity”.

Consider “QVHLVESGGGLVQAGGSLRLSCAASGSIFSGYAMGWYRQAPGKEREFVAAISSSGGRTYYADSVKGRFTISRDNAKNTVYLQINSLKPEDTAVYYCNARRWPFNYDYWGQGTQVTVSS”, for which the “polyreactivity (PSR sort gate)” value was “high polyreactivity”.

On to “QVQLVESGGGLVQAGGSLRLSCAASGGTFEFYTMGWYRQAPGKERELVAVINASGDSTYYADSVKGRFTISRDNAKNTVYLQMNSLKPEDTAVYYCAADHRGEYDYWGQGTQVTVSS”, for which the “polyreactivity (PSR sort gate)” value was “low polyreactivity”.

Regarding “QVQHVESGGGLVQAGGSLRLSCAASGRIFGTNAMGWYRQAPGKERELVAAINGSDSSTYYADSVKGRFTISRDNAKNTVYLQMNSLKPEDTAVYYCNADWSGAPERSTDGYDYWGQGTQVTVSS”, the “polyreactivity (PSR sort gate)” value is on record as “low polyreactivity”.
